Source: the supplement of paper PMC9170038

Test system: MS2 coat protein
Test: apparent KD of MS2 coat protein; designed switch direction (-1 OFF switch, 1 ON switch): 1; higher = weaker reporter binding
In short: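 Designed RNA switches were transcribed on Illumina chips by stalled E. coli RNA polymerase and titrated with SNAP-549-labelled MS2 coat protein from 0.7 or 1.5 nM, doubling to 3 µM. Step length ran from 0.8–1.5 h at the lowest concentration to 10–20 min at the highest. The apparent KD is the median over clusters for each design, from curve-fitted normalised cluster fluorescence.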

[1] = input ligand: microRNA oligo, concentration not stated
[2] = Eterna round: R95, input ligand: FMN 200 uM
[3] = Eterna round: R95, input ligand: microRNA oligo, concentration not stated
[4] = Eterna round: R95, input ligand: none

| Sequence | apparent KD of MS2 coat protein (input ligand: FMN 200 uM) | apparent KD of MS2 coat protein [1] | apparent KD of MS2 coat protein (input ligand: none) | apparent KD of MS2 coat protein [2] | apparent KD of MS2 coat protein [3] | apparent KD of MS2 coat protein [4] |
| --- | --- | --- | --- | --- | --- | --- |
| UUAUUAUUUACAUGAGGAUCACCCAUGUUUUUAUGUCUUAGACAGGAUAUAGUAGUCUCGUUUUACUAGAAGGGUCUUUUUAUU [JR_SSNG3_Sub018] (Eterna round: R96, puzzle: Same State NG 3) | 21.3 nM | 31.9 nM | 39.4 nM | – | – | – |
| AGGGUACAUGAGGAUCACCCAUGUGGGUCGGUCGCAGGAUAUGCCCGUGGGCGCUGGCGGGCAGAAGGGUGCCGAA [Same State1-IX] (Eterna round: R96, puzzle: Same State 1) | 81.4 nM | 187 nM | 341 nM | – | – | – |
| GUAGCAUACCGAGGAUAUUCAUAUAACAUGAGGAUCACCCAUGUAAGGCCACAUUAGUGGCCUUGGGAGAAGGCGGAAUGCUAC [Xeonanis - 20 Mod41] (Eterna round: R96, puzzle: Same State NG 2) | 11.7 nM | 63.5 nM | 77.1 nM | – | – | – |
| GUUACAUGAGGAUCACCCAUGUAUGUGUGGGAGUAAGUGUCUUAGGAUAUCUAUGAUUUAACUUAAGAGAAGGAAGAUUGUUGU [JMF's solution 81] (Eterna round: R96, puzzle: Same State NG 3) | 123 nM | 72.9 nM | 98.6 nM | – | – | – |
| GAGUAGUUGAAAGGAUAUUGAUUAUUGUAGGAUCAAGAAGGUUUUAACAUGAGGAUCACCCAUGUAGGACUAUAUAUGUGAAUA [Parity 95 - Jieux - Same State NG 1] (Eterna round: R96, puzzle: Same State NG 1) | 12.2 nM | 12.3 nM | 16 nM | – | – | – |
| AGUCCAGCCUGAGCUGGACAAAAGCAUGUACAUGAGGAUCACCCAUGUUCAUGUGCAAGCUUUUUGCUCGUCUUAAA [Zipper 52 - 4] (Eterna round: R96, puzzle: Sensor for hsa-mir-208a) | 71.5 nM | 10.7 nM | 69.8 nM | – | – | – |
| GGAGCCGGCACUGAGGAUAUUCAUAAUAAAACAUGAGGAUCACCCAUGUAGGCCAGAAGGCCUUGGGAGAAGGCAGGUCGGCUCG [Mat - Same State 2 - Mod of UCT - D65] (puzzle: Same State 2) | – | – | – | 16.7 nM | 138 nM | 185 nM |
| UCAAUCAUGUAAGGAUAUGCAGCCGAAACGGCUGCAGAAGGUACUAUAAUUACAUGAGGAUCACCCAUGUUAUAAAAUAAAUAU [Mat - Same State NG 1 - JL mod - D80] (Eterna round: R96, puzzle: Same State NG 1) | 40.9 nM | 92.7 nM | 160 nM | – | – | – |
| UGUUAACAUGAGGAUCACCCAUGUCAAAUGAAUGAAGGAUAUGGAAAGUAAUAAGAUGAACUAGAAGGUCAAGAUG [Altered State 1-22 - Jieux - Same State 1] (puzzle: Same State 1) | – | – | – | 48.4 nM | 51.9 nM | 49.8 nM |
| AUAAAACAUGAGGAUCACCCAUGUAAAAAUAUGGGAGGAUAUGCGAAAUAAAAUAAAUAAGCAGAAGGCCUAAAAA [SS! MT 19] (Eterna round: R96, puzzle: Same State 1) | 21.1 nM | 52.8 nM | 62.7 nM | – | – | – |
| GUUAACUUGAGAGGAUAUGUAGAGGAUCACCCUACAGAAGGCUCUUUGGAGAGGAUAUGUAGAGGAUCACCCUACAGAAGGCUC [pwkr ssNG DX.6] (Eterna round: R96, puzzle: Same State NG 1) | 56.5 nM | 33.7 nM | 25.9 nM | – | – | – |
| CAGCGCUGUUGAGAGGAUAUGCGGUGAUGGACAUGAGGAUCACCCAUGUUAGCGACAGCAUUACGGCAGAAGGCUUCACAGCUGC [Soteed Omei mod 17] (Eterna round: R96, puzzle: Same State 2) | 13.9 nM | 36.9 nM | 47.1 nM | – | – | – |
| AAUUAAUUAAUUAAGUACAUGAGGAUCACCCAUGUAAGUGAUCAGGAUAUCAGCUCGUUUAGAGCUGAGAAGGGAUCCAUGUAC [SSNG3/15-A3] (Eterna round: R96, puzzle: Same State NG 3) | 360 nM | 297 nM | 404 nM | – | – | – |
| GAGUAGUUGAAAGGAUAUUGAUUGUUGUAGGAUCAAGAAGGUUCUAACAUGAGGAUCACCCAUGUAGGACUAUUCCUGUGUAUC [Parity 86 - Jieux - Same State NG 1] (Eterna round: R96, puzzle: Same State NG 1) | 8.27 nM | 8.09 nM | 11.9 nM | – | – | – |
